Measured values published in patent publication US20140087995A1 (published 2014).
Each block holds one binder with its values, some of them ahead of it. Numbered stars: 1 amine (or outer) side, 2 acyl side, 3 side chain; on linkers, the order of the positions; unused ones are H or OH. Bridge positions count the residues as written; N and C are the ends. * marks the point of attachment. C20 diacid = O=C(O)CCCCCCCCCCCCCCCCCCC(=O)*; γGlu = O=C(O)[C@H](CCC(=O)[*:2])N[*:1]

Columns and labels:
[1] = molecular target: T1, human calcitonin receptor (human, UniProt P30988 25-474); assay: ratio IC50 hCTR / IC50 hAmylin-R of the two SPA competition assays; reference: human amylin receptor
T1 construct: whole, on cells; Assay used cell membranes of the transfected BHK cells; also called hCTR; hCT
T1 sequence (looked up): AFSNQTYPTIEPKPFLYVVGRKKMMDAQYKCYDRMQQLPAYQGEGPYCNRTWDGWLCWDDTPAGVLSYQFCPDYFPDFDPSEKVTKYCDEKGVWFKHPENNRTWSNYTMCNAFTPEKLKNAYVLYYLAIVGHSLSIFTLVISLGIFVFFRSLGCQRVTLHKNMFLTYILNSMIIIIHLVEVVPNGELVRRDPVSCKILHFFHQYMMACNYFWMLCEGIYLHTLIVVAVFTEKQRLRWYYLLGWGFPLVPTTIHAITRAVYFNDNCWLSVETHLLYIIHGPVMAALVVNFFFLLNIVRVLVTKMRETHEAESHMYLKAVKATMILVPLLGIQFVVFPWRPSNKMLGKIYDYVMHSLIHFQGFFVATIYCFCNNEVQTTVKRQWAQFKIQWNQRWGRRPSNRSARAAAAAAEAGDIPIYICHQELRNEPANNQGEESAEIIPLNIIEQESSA
Experimental: The resulting pellet was resuspended, homogenized and centrifuged (20.000 rpm, 15 min) in a buffer containing 20 mM Na-HEPES and 0.1 mM EDTA (pH 7.4, buffer 2). The resulting pellet was resuspended in buffer 2 and protein concentration was measured (BCA protein Assay, Pierce). The homogenate was kept cold during the whole procedure. The membranes were kept at −80° C. until use. The assay was performed in a 384 well Optiplate (PerkinElmer) in a total volume of 40 ul. Membranes were mixed with SPA beads. Final concentration of membranes 35 ng/μL final and SPA beads was 0.05 mg/well. Test-compounds were dissolved in DMSO and further diluted in assay buffer (50 mM Hepes, pH 7.4, 1 mM CaCl2, 5 mM MgCl₂, 0.1% OA and 0.02% Tween20). […] The final mixture was incubated with shaking at 400 rpm for 120 min at 25° C. prior to centrifugation (1500 rpm, 10 min). Samples were analyzed on TopCounter™ (Packard). The IC₅₀ was calculated using (one site binding competition analysis) GraphPad Prism5 as a measure of receptor affinity.
Membranes were prepared in the following way; the cells were rinsed with PBS and incubated with Versene for approximately 5 min before harvesting. The cells were flushed with PBS and the cell-suspension was centrifuged for 5 min at 1000 rpm. Cells were homogenized (Ultrathurrax) in a buffer containing 20 mM Na-HEPES and 10 mM EDTA (pH 7.4) and centrifuged at 20.000 rpm for 15 min. The resulting pellet was resuspended, homogenized and centrifuged (20.000 rpm, 15 min) in a buffer containing 20 mM Na-HEPES and 0.1 mM EDTA (pH 7.4, buffer 2). The resulting pellet was resuspended in buffer 2 and protein concentration was measured (BCA protein Assay, Pierce). The homogenate was kept cold during the whole procedure. The membranes were kept at −80° C. until use. Assay was performed in a 384 well Optiplate (PerkinElmer) in a total volume of 40 ul. Membranes were mixed with SPA beads.

[2] = molecular target: T1, human calcitonin receptor; assay: SPA radioligand competition (125I-calcitonin), membranes of BHK cells with human calcitonin receptor
Procedure, shortened: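 BHK hCTR membranes 35 ng/μL + SPA beads 0.05 mg/well; buffer 50 mM Hepes pH 7.4, 1 mM CaCl2, 5 mM MgCl₂, 0.1% OA, 0.02% Tween20. 120 min, 25° C., shaking. Scintillation count; IC50 by one-site binding competition.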

Ratio hCT/hAmylin binding [1]: 20.5
IC50 [2]: 12.5 nM
B1: N^α1-[(4S)-4-carboxy-4-(19-carboxynonadecanoylamino)butanoyl]-[Arg17,Pro21,Pro27,Pro31,Glu35]-h-amylin (peptide)
peptide: {C20 diacid-γGlu}-KCNTATCATQRLANFLRHSSPNFGAIPSSTPVGSETY-NH2
modifications: disulfide 2-7
SMILES: CC[C@H](C)[C@H](NC(=O)[C@H](C)NC(=O)CNC(=O)[C@H](Cc1ccccc1)NC(=O)[C@H](CC(N)=O)NC(=O)[C@@H]1CCCN1C(=O)[C@H](CO)NC(=O)[C@H](CO)NC(=O)[C@H](Cc1c[nH]cn1)NC(=O)[C@H](CCCNC(=N)N)NC(=O)[C@H](CC(C)C)NC(=O)[C@H](Cc1ccccc1)NC(=O)[C@H](CC(N)=O)NC(=O)[C@H](C)NC(=O)[C@H](CC(C)C)NC(=O)[C@H](CCCNC(=N)N)NC(=O)[C@H](CCC(N)=O)NC(=O)[C@@H](NC(=O)[C@H](C)NC(=O)[C@@H]1CSSC[C@H](NC(=O)[C@H](CCCCN)NC(=O)CC[C@H](NC(=O)CCCCCCCCCCCCCCCCCCC(=O)O)C(=O)O)C(=O)N[C@@H](CC(N)=O)C(=O)N[C@@H]([C@@H](C)O)C(=O)N[C@@H](C)C(=O)N[C@@H]([C@@H](C)O)C(=O)N1)[C@@H](C)O)C(=O)N1CCC[C@H]1C(=O)N[C@@H](CO)C(=O)N[C@@H](CO)C(=O)N[C@H](C(=O)N1CCC[C@H]1C(=O)N[C@H](C(=O)NCC(=O)N[C@@H](CO)C(=O)N[C@@H](CCC(=O)O)C(=O)N[C@H](C(=O)N[C@@H](Cc1ccc(O)cc1)C(N)=O)[C@@H](C)O)C(C)C)[C@@H](C)O
notes: Synthetic analogue; also called compound 28

Ratio hCT/hAmylin binding [1]: 13.9
IC50 [2]: 8.01 nM
B2: N^α1-[(4S)-4-carboxy-4-(19-carboxynonadecanoylamino)butanoyl]-[Arg17,Pro21,Pro27,Pro34,Glu35]-h-amylin (peptide)
peptide: {C20 diacid-γGlu}-KCNTATCATQRLANFLRHSSPNFGAIPSSTNVGPETY-NH2
modifications: disulfide 2-7
SMILES: CC[C@H](C)[C@H](NC(=O)[C@H](C)NC(=O)CNC(=O)[C@H](Cc1ccccc1)NC(=O)[C@H](CC(N)=O)NC(=O)[C@@H]1CCCN1C(=O)[C@H](CO)NC(=O)[C@H](CO)NC(=O)[C@H](Cc1c[nH]cn1)NC(=O)[C@H](CCCNC(=N)N)NC(=O)[C@H](CC(C)C)NC(=O)[C@H](Cc1ccccc1)NC(=O)[C@H](CC(N)=O)NC(=O)[C@H](C)NC(=O)[C@H](CC(C)C)NC(=O)[C@H](CCCNC(=N)N)NC(=O)[C@H](CCC(N)=O)NC(=O)[C@@H](NC(=O)[C@H](C)NC(=O)[C@@H]1CSSC[C@H](NC(=O)[C@H](CCCCN)NC(=O)CC[C@H](NC(=O)CCCCCCCCCCCCCCCCCCC(=O)O)C(=O)O)C(=O)N[C@@H](CC(N)=O)C(=O)N[C@@H]([C@@H](C)O)C(=O)N[C@@H](C)C(=O)N[C@@H]([C@@H](C)O)C(=O)N1)[C@@H](C)O)C(=O)N1CCC[C@H]1C(=O)N[C@@H](CO)C(=O)N[C@@H](CO)C(=O)N[C@H](C(=O)N[C@@H](CC(N)=O)C(=O)N[C@H](C(=O)NCC(=O)N1CCC[C@H]1C(=O)N[C@@H](CCC(=O)O)C(=O)N[C@H](C(=O)N[C@@H](Cc1ccc(O)cc1)C(N)=O)[C@@H](C)O)C(C)C)[C@@H](C)O
notes: Synthetic analogue; also called compound 29
